Results published in article PMC10194977.

Key:
[1] = molecular target: Recombinant human PERK (EIF2AK3, active catalytic subunit of PERK protein) (human)
[2] = molecular target: Recombinant human PERK (EIF2AK3, active catalytic subunit of PERK protein) (human); remark: listed apart in the source
[3] = molecular target: Recombinant human PERK (EIF2AK3, active catalytic subunit of PERK protein) (human); remark: listed apart in the source

- % of PERK activity (relative to control; ADP-Glo, SMAD3 substrate) with 0.87 μM calcineurin-B, 1 h at 37 °C (no significant activation) [1]: 99.5%
- % of PERK activity (relative to control; ADP-Glo, SMAD3 substrate) with 0.87 μM calcineurin-B, 1 h at RT [1]: 106%
- relative PERK kinase activity (% of basal activity; ADP-Glo, SMAD3 substrate) with 0.87 μM calcineurin-B at reaction times of 15, 30, 60 and 120 min, RT; highest value at 120 min [2]: 128%
- EC50 of activation of PERK kinase activity (ATP consumption, ADP-Glo luminescence; 87 nM PERK, 0.26 μM SMAD3 as substrate, 50 μM ATP; RT, 2 h; three-fold serial dilution of calcineurin-B) [3]: 2.72 µM
Substance: full-length recombinant human calcineurin-B (from UniProt P63098 1-170) (natural protein)
